Key:
[1] = biological target: T1, human neonatal Fc receptor (hFcRn) (human, UniProt P55899 24-290; P61769 21-119); assay: phage ELISA pH 6
T1 construct: Biotinylated in the ELISA, Octet and yeast assays; also called human FcRn; huFcRn
Method: (§1) Approximately 100 μL of biotinylated human FcRn at 2 μg/mL was added to the wells of MAXISORP™ plates coated with 10 μg/mL streptavidin. After washing with PBS plus 0.05% Tween 20 (PBST) five times, phage from the overnight cultures in MES buffer at pH 6.0 or pH 7.4 were added to the plates and incubated at room temperature for 1 hr. A horseradish peroxidase (HRP)-conjugated anti-M13 antibody was used to detect the binding phage, and the plates were scored by a microtiter plate reader using a wavelength in the visible range.
(§2) Binding was assessed by a quantitative enzyme-linked immunoadsorbent assay (ELISA). The ELISA scores reflect binding affinity, with higher scores meaning higher affinity. Typically, scores higher than about 3˜5 indicate binding above background. For library L5, the insertions are between the N169 and G170 according to the numbering in FIG. 2. For libraries 6A and 6B, the insertions are between L143 and T144 according to the numbering in FIG. 2.

[2] = biological target: T1, human neonatal Fc receptor (hFcRn); assay: phage ELISA pH 7.4
Method: as §1, §2
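Note: higher score means stronger binding and above about 3 to 5 exceeds background.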

T1 sequence (P55899 24-290 limits assumed, chain 1 of 2): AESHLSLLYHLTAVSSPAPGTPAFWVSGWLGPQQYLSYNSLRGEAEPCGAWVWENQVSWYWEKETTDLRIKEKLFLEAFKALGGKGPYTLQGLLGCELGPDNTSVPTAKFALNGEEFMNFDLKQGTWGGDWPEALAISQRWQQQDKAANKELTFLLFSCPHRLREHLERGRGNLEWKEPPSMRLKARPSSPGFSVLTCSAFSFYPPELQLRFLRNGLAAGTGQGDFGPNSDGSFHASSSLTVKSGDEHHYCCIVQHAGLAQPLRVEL
T1 sequence (P61769 21-119 limits assumed, chain 2 of 2): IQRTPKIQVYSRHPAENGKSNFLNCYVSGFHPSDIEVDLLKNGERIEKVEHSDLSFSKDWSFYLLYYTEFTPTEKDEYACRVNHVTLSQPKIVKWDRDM

Binder | ELISA score [1] | ELISA score [2]
L5 isolate with insertion SEQ ID NO: 470 (other) EPKSCDKTHTCPPCPAPELLGGPSVFLFPPKPKDTLMISRTPEVTCVVVDVSHEDPEVKFNWYVDGVEVHNAKTKPREEQYNSTYRVVSVLTVLHQDWLNGKEYKCKVSNKALPAPIEKTISKAKGQPREPQVYTLPPSRDELTKNQVSLTCLVKGFYPSDIAVEWESNGGCEASGQICGGGQPENNYKTTPPVLDSDGSFFLYSKLTVDKSRWQQGNVFSCSVMHEALHNHYTQKSLSLSPGK | 42.4 | 1.6
L5 isolate with insertion SEQ ID NO: 475 (other) EPKSCDKTHTCPPCPAPELLGGPSVFLFPPKPKDTLMISRTPEVTCVVVDVSHEDPEVKFNWYVDGVEVHNAKTKPREEQYNSTYRVVSVLTVLHQDWLNGKEYKCKVSNKALPAPIEKTISKAKGQPREPQVYTLPPSRDELTKNQVSLTCLVKGFYPSDIAVEWESNGGCLGLRQECGGGQPENNYKTTPPVLDSDGSFFLYSKLTVDKSRWQQGNVFSCSVMHEALHNHYTQKSLSLSPGK | 41.1 | 1.6
L5 isolate with insertion SEQ ID NO: 477 (other) EPKSCDKTHTCPPCPAPELLGGPSVFLFPPKPKDTLMISRTPEVTCVVVDVSHEDPEVKFNWYVDGVEVHNAKTKPREEQYNSTYRVVSVLTVLHQDWLNGKEYKCKVSNKALPAPIEKTISKAKGQPREPQVYTLPPSRDELTKNQVSLTCLVKGFYPSDIAVEWESNGGCQQIKEWCGGGQPENNYKTTPPVLDSDGSFFLYSKLTVDKSRWQQGNVFSCSVMHEALHNHYTQKSLSLSPGK | 38.7 | 1.6
L5 isolate with insertion SEQ ID NO: 478 (other) EPKSCDKTHTCPPCPAPELLGGPSVFLFPPKPKDTLMISRTPEVTCVVVDVSHEDPEVKFNWYVDGVEVHNAKTKPREEQYNSTYRVVSVLTVLHQDWLNGKEYKCKVSNKALPAPIEKTISKAKGQPREPQVYTLPPSRDELTKNQVSLTCLVKGFYPSDIAVEWESNGGCDLPNEMCGGGQPENNYKTTPPVLDSDGSFFLYSKLTVDKSRWQQGNVFSCSVMHEALHNHYTQKSLSLSPGK | 36.1 | 1
L5 isolate with insertion SEQ ID NO: 479 (other) EPKSCDKTHTCPPCPAPELLGGPSVFLFPPKPKDTLMISRTPEVTCVVVDVSHEDPEVKFNWYVDGVEVHNAKTKPREEQYNSTYRVVSVLTVLHQDWLNGKEYKCKVSNKALPAPIEKTISKAKGQPREPQVYTLPPSRDELTKNQVSLTCLVKGFYPSDIAVEWESNGGCMFSHPHCGGGQPENNYKTTPPVLDSDGSFFLYSKLTVDKSRWQQGNVFSCSVMHEALHNHYTQKSLSLSPGK | 35.8 | 0.7
L5 isolate with insertion SEQ ID NO: 480 (other) EPKSCDKTHTCPPCPAPELLGGPSVFLFPPKPKDTLMISRTPEVTCVVVDVSHEDPEVKFNWYVDGVEVHNAKTKPREEQYNSTYRVVSVLTVLHQDWLNGKEYKCKVSNKALPAPIEKTISKAKGQPREPQVYTLPPSRDELTKNQVSLTCLVKGFYPSDIAVEWESNGGCAGPYWACGGGQPENNYKTTPPVLDSDGSFFLYSKLTVDKSRWQQGNVFSCSVMHEALHNHYTQKSLSLSPGK | 33.7 | 0.7
L5 isolate with insertion SEQ ID NO: 481 (other) EPKSCDKTHTCPPCPAPELLGGPSVFLFPPKPKDTLMISRTPEVTCVVVDVSHEDPEVKFNWYVDGVEVHNAKTKPREEQYNSTYRVVSVLTVLHQDWLNGKEYKCKVSNKALPAPIEKTISKAKGQPREPQVYTLPPSRDELTKNQVSLTCLVKGFYPSDIAVEWESNGGCEQQFVTCGGGQPENNYKTTPPVLDSDGSFFLYSKLTVDKSRWQQGNVFSCSVMHEALHNHYTQKSLSLSPGK | 31.1 | 0.8
L5 isolate with insertion SEQ ID NO: 482 (other) EPKSCDKTHTCPPCPAPELLGGPSVFLFPPKPKDTLMISRTPEVTCVVVDVSHEDPEVKFNWYVDGVEVHNAKTKPREEQYNSTYRVVSVLTVLHQDWLNGKEYKCKVSNKALPAPIEKTISKAKGQPREPQVYTLPPSRDELTKNQVSLTCLVKGFYPSDIAVEWESNGGCMGWWHLCGGGQPENNYKTTPPVLDSDGSFFLYSKLTVDKSRWQQGNVFSCSVMHEALHNHYTQKSLSLSPGK | 29.5 | 1.2
L5 isolate with insertion SEQ ID NO: 483 (other) EPKSCDKTHTCPPCPAPELLGGPSVFLFPPKPKDTLMISRTPEVTCVVVDVSHEDPEVKFNWYVDGVEVHNAKTKPREEQYNSTYRVVSVLTVLHQDWLNGKEYKCKVSNKALPAPIEKTISKAKGQPREPQVYTLPPSRDELTKNQVSLTCLVKGFYPSDIAVEWESNGGCPQHGEMCGGGQPENNYKTTPPVLDSDGSFFLYSKLTVDKSRWQQGNVFSCSVMHEALHNHYTQKSLSLSPGK | 28.4 | 0.5
L5 isolate with insertion SEQ ID NO: 484 (other) EPKSCDKTHTCPPCPAPELLGGPSVFLFPPKPKDTLMISRTPEVTCVVVDVSHEDPEVKFNWYVDGVEVHNAKTKPREEQYNSTYRVVSVLTVLHQDWLNGKEYKCKVSNKALPAPIEKTISKAKGQPREPQVYTLPPSRDELTKNQVSLTCLVKGFYPSDIAVEWESNGGCYASPHECGGGQPENNYKTTPPVLDSDGSFFLYSKLTVDKSRWQQGNVFSCSVMHEALHNHYTQKSLSLSPGK | 27.7 | 1
L5 isolate with insertion SEQ ID NO: 485 (other) EPKSCDKTHTCPPCPAPELLGGPSVFLFPPKPKDTLMISRTPEVTCVVVDVSHEDPEVKFNWYVDGVEVHNAKTKPREEQYNSTYRVVSVLTVLHQDWLNGKEYKCKVSNKALPAPIEKTISKAKGQPREPQVYTLPPSRDELTKNQVSLTCLVKGFYPSDIAVEWESNGGCMPPQWMCGGGQPENNYKTTPPVLDSDGSFFLYSKLTVDKSRWQQGNVFSCSVMHEALHNHYTQKSLSLSPGK | 27.5 | 2.1
L5 isolate with insertion SEQ ID NO: 486 (other) EPKSCDKTHTCPPCPAPELLGGPSVFLFPPKPKDTLMISRTPEVTCVVVDVSHEDPEVKFNWYVDGVEVHNAKTKPREEQYNSTYRVVSVLTVLHQDWLNGKEYKCKVSNKALPAPIEKTISKAKGQPREPQVYTLPPSRDELTKNQVSLTCLVKGFYPSDIAVEWESNGGCDTIGWFCGGGQPENNYKTTPPVLDSDGSFFLYSKLTVDKSRWQQGNVFSCSVMHEALHNHYTQKSLSLSPGK | 26.9 | 1.4
L5 isolate with insertion SEQ ID NO: 487 (other) EPKSCDKTHTCPPCPAPELLGGPSVFLFPPKPKDTLMISRTPEVTCVVVDVSHEDPEVKFNWYVDGVEVHNAKTKPREEQYNSTYRVVSVLTVLHQDWLNGKEYKCKVSNKALPAPIEKTISKAKGQPREPQVYTLPPSRDELTKNQVSLTCLVKGFYPSDIAVEWESNGGCGIFESWCGGGQPENNYKTTPPVLDSDGSFFLYSKLTVDKSRWQQGNVFSCSVMHEALHNHYTQKSLSLSPGK | 26.3 | 0.7
L5 isolate with insertion SEQ ID NO: 488 (other) EPKSCDKTHTCPPCPAPELLGGPSVFLFPPKPKDTLMISRTPEVTCVVVDVSHEDPEVKFNWYVDGVEVHNAKTKPREEQYNSTYRVVSVLTVLHQDWLNGKEYKCKVSNKALPAPIEKTISKAKGQPREPQVYTLPPSRDELTKNQVSLTCLVKGFYPSDIAVEWESNGGCGPYKTECGGGQPENNYKTTPPVLDSDGSFFLYSKLTVDKSRWQQGNVFSCSVMHEALHNHYTQKSLSLSPGK | 26.1 | 0.9
L5 isolate with insertion SEQ ID NO: 489 (other) EPKSCDKTHTCPPCPAPELLGGPSVFLFPPKPKDTLMISRTPEVTCVVVDVSHEDPEVKFNWYVDGVEVHNAKTKPREEQYNSTYRVVSVLTVLHQDWLNGKEYKCKVSNKALPAPIEKTISKAKGQPREPQVYTLPPSRDELTKNQVSLTCLVKGFYPSDIAVEWESNGGCQPQASWCGGGQPENNYKTTPPVLDSDGSFFLYSKLTVDKSRWQQGNVFSCSVMHEALHNHYTQKSLSLSPGK | 25.2 | 0.7
L5 isolate with insertion SEQ ID NO: 491 (other) EPKSCDKTHTCPPCPAPELLGGPSVFLFPPKPKDTLMISRTPEVTCVVVDVSHEDPEVKFNWYVDGVEVHNAKTKPREEQYNSTYRVVSVLTVLHQDWLNGKEYKCKVSNKALPAPIEKTISKAKGQPREPQVYTLPPSRDELTKNQVSLTCLVKGFYPSDIAVEWESNGGSQRAPASCGGGQPENNYKTTPPVLDSDGSFFLYSKLTVDKSRWQQGNVFSCSVMHEALHNHYTQKSLSLSPGK | 24.9 | 1.2
L5 isolate with insertion SEQ ID NO: 492 (other) EPKSCDKTHTCPPCPAPELLGGPSVFLFPPKPKDTLMISRTPEVTCVVVDVSHEDPEVKFNWYVDGVEVHNAKTKPREEQYNSTYRVVSVLTVLHQDWLNGKEYKCKVSNKALPAPIEKTISKAKGQPREPQVYTLPPSRDELTKNQVSLTCLVKGFYPSDIAVEWESNGGCMMREQGCGGGQPENNYKTTPPVLDSDGSFFLYSKLTVDKSRWQQGNVFSCSVMHEALHNHYTQKSLSLSPGK | 23.9 | 1.5
L5 isolate with insertion SEQ ID NO: 493 (other) EPKSCDKTHTCPPCPAPELLGGPSVFLFPPKPKDTLMISRTPEVTCVVVDVSHEDPEVKFNWYVDGVEVHNAKTKPREEQYNSTYRVVSVLTVLHQDWLNGKEYKCKVSNKALPAPIEKTISKAKGQPREPQVYTLPPSRDELTKNQVSLTCLVKGFYPSDIAVEWESNGGCLLPNMFCGGGQPENNYKTTPPVLDSDGSFFLYSKLTVDKSRWQQGNVFSCSVMHEALHNHYTQKSLSLSPGK | 22 | 1

From patent US20140356358A1 (Amgen, published 2014)
